Reference: the nanobody polyreactivity screen of Harvey et al. (2022)

Assay: yeast display, Sf9 membrane polyspecificity reagent, FACS + sequencing; frameworks hold sequencing errors
How it was run: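 Synthetic nanobody libraries on Saccharomyces cerevisiae BJ5465 were galactose-induced for 36–48 hours, stained 1 hour at 4 °C with 10% biotinylated, detergent-solubilized Sf9 membrane reagent and enriched on streptavidin microbeads. FACS then separated cells into low and high (top ~1%) gates by anti-HA (expression) and streptavidin (reagent binding) fluorescence. Genes were colony-PCR amplified, MiSeq 2 × 250 sequenced and CDR-length filtered. A clone's polyreactivity label is that of its gate of origin.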

| Sequence | polyreactivity (PSR sort gate) |
| --- | --- |
| QVQIVESGGGLVQPGCSLRLSCAASGRIFYGYAMGLYRQSPGKERELVAAITSTRGRTYYADSVKGRFTISRDNAKNTFYLQMNSLKPEDSAVYYCAKRGYTRWGLDYWGQGTQVTVSS | high polyreactivity |
| QVQLVESGGALVQAGGSLRLSCAASGSTFYSYAMGWYRQAPGKERELVAVISTGDTTDYADSVKGRFTISRDNAKNTVNLQMNSLKPEDTAVYYCNAPSYWYYPVLGSFLTFDYWGQGTQVTVSS | low polyreactivity |
| QVQLVESGGGLVQAGGSLRLSCAASGRIFYWYVMGWYIQAPGKERELVATIRYSGGNTYYADSVKGRFTISRDNAKNTVYLQMNSLKPEDTAVYYCAAGSLYWGRSPTRGGQGGYWGQGTQVTVSS | high polyreactivity |
| QVQLVESGGGLVHAGGSLRLSCAAYGRTFKYNAMGWNRQAPGKERELVAAISSRGGSTYYADSVKGRFTISRDNAKNTVYLQMNSLKPEDTAVYYCAIATSSSEYGYDYWGQGTQVTVSS | high polyreactivity |
| QVQLVESGGGLVQAGGSLRLSCAASGRIFVSNVRGWYRQAPGKERELVAAIDKSGGSTYYADSVKGRFTISRDNAKNSVYLQMNSLKPEDTAVYYCAATSYRQPYRYYYWGQGTQVTVSS | high polyreactivity |
| QVQLVESGGGLVQAGRSLRLSCAASGSIFPGNAMGWYRQAPGKERELVASINWSGGSTYYADSVKGRFTISRDNAKNTVYLQMNSLKPEDTAVYYCNADPGYYDYDYWGQVTQVTVSS | low polyreactivity |
| QVQLVESGGGLVQAGGSLRLSCAASGRTFAIYAMGWYRPAPGKEREFVAAISWSGGDTYYADSVKGRFTISRDNAKNTVYLQMNSLKPEDTAVYYCAARDYDYEGRDLQYELDYWGQGTQVTVSS | low polyreactivity |
| QVQLQESGGCVVQAGGSLRLSCAASGTISDSGLMGWYRQAPGKERELVAGISSGGITNYADSVKGRFTISRDNAKNTVYLQMNSLKPEDTAVYWGQGTQVTVSS | low polyreactivity |
| QVQLVESRGGLVQAGGSLRLSCAASGSTFNYYVMGWYRQAPGKERELVAAISRSGTSTYYADSVKGRFTISRDNAKNTVYLQMNSLKPEDTAVYYCAAYQPYYARTELDYWGQGTQVTVSS | high polyreactivity |
| QVQLVESGGGLVQAGGSLRLSCAASGRTFWSYAMGWYRQAPGKERELVAAITSSGGTTNYADSVKGRFTISRDNAKNTVYLQMNSLKPEDTAVYYCAAYSWYFGSRYDYWGQGTQVTVSS | low polyreactivity |
| QVQLVESGGGLVQAGGSLRLSCAASGRTFGYYAMGWYRQAPGKERELVATITWSGGSTYYADSVKGRFTISRDNAKNTVYLQMNSLKPEDTAVYYCATDALYTYGYDYWGQGTQVTVSS | low polyreactivity |
| QVQLVESGGGLVQAGGSLRLSCAASGFTFYFYAMGWYRQAPGKERELVATITIGGRTNYADSVKGRFTISRDNAKNTVYLQMNSLKPEDTAVYYCAAAYLWISRYSGYDYWGQGTQVTVSS | high polyreactivity |
| QVQLVESGGGLVQAGGSIRLRCAASGITFYYYAMGWYRQAPAKERELVAAISRSGITYYADSVKGRFTISRDNAKNSVYLQMNSLKPEDTAVYYGAAGRRFDQSMYYGGQGTQVTVSS | high polyreactivity |
| QDQLVESGVGIVQAGGSLRLSCAASGSTFGIYAKGWYRQAPGKETELDAAISSGASTNYADSVKGRFTISRDNEKNTVYLQMNSLKQEDTAVYYCAVESVYEYGGYVDSAYDYWGQGTQVTVSS | low polyreactivity |
| QVHLVESGGGLVQAGGILRLSSPASGSISGWYAMGWSRQEPGKERELVSDMTRGGRTYYADSVKGRFTISRDNAKNTVYLQMNSLKPEDTAVYYCASPSPSYYYRSGWGSYYSWGLGTQVTVSS | high polyreactivity |
| QFQLVESGGGLVQAGGSLRLSCAASGGIFTDYTMGWYRQAPGKERELVAAITWTGGSTYYADSVKGRFTISRDNAKNTVYLQMNILKPEDTAVYYCAADDYWVNLDYWGQGTQVTVSS | low polyreactivity |
| QVQLVESGGGLVQAGGSLRLSCAASGRTFEGYTMGWYRQAPGKERELVSAISWSGARTYYADSVKGRFTISRDNAKNTVYLQMNSLKPEDTAVYYCAADRYWISLWYIMGYWGQGTQVTVSS | high polyreactivity |
| QVQLVESGGGLVQAGGSLRLSCAASGSSLGLNAMGWYRQAPGKERELVAGISWRGGSTYYADSVKGRFTISRDNAKNTVYLQMNSLKPEDTAVYYCNAVRFYGRWRGYDYWGQGTQVTVSS | high polyreactivity |
| QLQLVESGRGLVQAGGSLRLSCDASGYIFGWYAMGSYRQAPGKERELVAAITRGVSTNYADSVKGRFTISRENAMNTVYLQMNSLKPEDTAVYYCNTEDWAVGSPEVEYEYDYWGQGTQVTVSS | low polyreactivity |
| QVQLVESGVGLVQAGGSLRLSCAASGRIFHYNAMGWYRQAPGKERELVAAISTGGSTNYADSVKGRFTISRDNAKNTVYLQMNSLKPEDTAVYYCAADRTLSYEYWGQGTQVTVSS | low polyreactivity |
| QVQLVESGGGLVQAGGSLRLSCAASGRTFILYTMGWYRQAPGKERELVAAITTGGSTSYADSVKGRVTISRDNAKNTVYLQMNSLKPEDTAVYYCNALSRLRYKPRLYDYWGQGTQVTVSS | low polyreactivity |
